Reference: article PMC7022988, “General and Genomic DNA-Binding Specificity for the Thermus thermophilus HB8 Transcription Factor TTHB023”
Numbering of substitutions follows the chain as printed.

Experiments:
[1] = target: T1, TTHB023 (PfmR) (Thermus thermophilus HB8) (UniProt Q53WD9); assay: BLI; details: BLI: 20 mM Tris-Cl pH 7.7, 100 mM NaCl, 1 mM EDTA, 0.05% Tween 20, 1.4 nM biotin-DNA loaded at 37 °C, 3.7-300 nM protein; EMSA: 1x NEB CutSmart buffer, 55 °C …
T1 sequence: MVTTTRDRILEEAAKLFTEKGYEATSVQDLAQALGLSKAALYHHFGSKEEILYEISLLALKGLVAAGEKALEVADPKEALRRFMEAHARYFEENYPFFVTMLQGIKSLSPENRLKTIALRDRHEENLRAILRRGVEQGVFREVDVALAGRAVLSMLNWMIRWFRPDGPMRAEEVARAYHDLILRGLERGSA

[2] = target: T2, TTHB023 (PfmR) (Thermus thermophilus HB8, UniProt Q53WD9 1-191); assay: BLI; printed koff/kon (1.072e-4/2.350e5) does not match printed KD; BLI: 20 mM Tris-Cl pH 7.7, 100 mM NaCl, 1 mM EDTA, 0.05% Tween 20, 1.4 nM biotin-DNA loaded at 37 °C, 3.7-300 nM protein; EMSA: 1x NEB CutSmart buffer, 55 °C 20 min, 1 ng DNA in 5 µL, 10% native PAGE; details: protein: recombinant; chain copies: 2; label: 5' biotin-dT on strand 2; blunt
T2 sequence: T1 sequence

[3] = target: T2, TTHB023 (PfmR); assay: BLI; BLI: 20 mM Tris-Cl pH 7.7, 100 mM NaCl, 1 mM EDTA, 0.05% Tween 20, 1.4 nM biotin-DNA loaded at 37 °C, 3.7-300 nM protein; EMSA: 1x NEB CutSmart buffer, 55 °C 20 min, 1 ng DNA in 5 µL, 10% native PAGE; details: protein: recombinant; chain copies: 2; label: 5' biotin-dT on strand 2; blunt
[4] = target: T2, TTHB023 (PfmR); assay: BLI; slight effect only at 300 nM, nonspecific; Kd extrapolated; BLI: 20 mM Tris-Cl pH 7.7, 100 mM NaCl, 1 mM EDTA, 0.05% Tween 20, 1.4 nM biotin-DNA loaded at 37 °C, 3.7-300 nM protein; EMSA: 1x NEB CutSmart buffer, 55 °C 20 min, 1 ng DNA in 5 µL, 10% native PAGE; details: protein: recombinant; chain copies: 2; label: 5' biotin-dT on strand 2; blunt

Work on “CTAGGAATTCGTGCAGAGGTGAATCTGACCGATCGGTCAGTTACCATCCCTCCAGAAGCTTGGACA (double strand) [ST2_B023_R6_wt consensus (BLI probe)]” yielded a Kd [1] of 2.1 nM.

B1: m1 (dsDNA)
DNA 1: CTAGGAATTCGTGCAGAGGTGAATGTGACCGATCGGTCAGTTACCATCCCTCCAGAAGCTTGGACA
DNA 2: TGTCCAAGCTTCTGGAGGGATGGTAACTGACCGATCGGTCACATTCACCTCTGCACGAATTCCTAG
Work on B1 yielded a Kd [2] of 4.56 nM.

B2: m2 (dsDNA)
DNA 1: B1 DNA 1 with G25C, T26G
DNA 2: B1 DNA 2 with A41C, C42G
Work on B2 yielded a Kd [3] of 23 nM.

B3: m4 (dsDNA)
DNA 1: B1 DNA 1 with G25C, A28C
DNA 2: B1 DNA 2 with T39G, C42G
B3 was tested, and the Kd [3] was 27.8 nM.

B4: m7 (dsDNA)
DNA 1: B1 DNA 1 with G25C, G31C
DNA 2: B1 DNA 2 with C36G, C42G
B4 gave a Kd [3] of 205 nM.

B5: m8 (dsDNA)
DNA 1: B1 DNA 1 with G25C, A32C
DNA 2: B1 DNA 2 with T35G, C42G
Molecule B5 has a Kd [3] of 59.5 nM.

B6: m6 (dsDNA)
DNA 1: B1 DNA 1 with G25C, C30G
DNA 2: B1 DNA 2 with G37C, C42G
B6 was tested, and the Kd [3] was 279 nM.

B7: m5 (dsDNA)
DNA 1: B1 DNA 1 with G25C, C29T
DNA 2: B1 DNA 2 with G38A, C42G
Work on B7 yielded a Kd [3] of 53.1 nM.

B8: m3 (dsDNA)
DNA 1: B1 DNA 1 with G25C, G27C
DNA 2: B1 DNA 2 with C40G, C42G
With B8 the Kd [3] was 6.62 nM.

B9: REPSAis control (dsDNA)
DNA 1: CTAGGAATTCGTGCAGAGGTGAATCGTCATAGAATTCGTTACCATCCCTCCAGAAGCTTGGACA
DNA 2: TGTCCAAGCTTCTGGAGGGATGGTAACGAATTCTATGACGATTCACCTCTGCACGAATTCCTAG
Molecule B9 has a Kd [4] of 138000 nM.
